# Patent US20230002478A1
# B1: 6-63 (Fc fusion)
# chain: EVQLVESGGGLVQPGGSLRLSCAASGQTFNMGWFRQAPGKEREFVAAIGSGGSTSYADSVKGRFTISADNSKNTAYLQMNSLKPEDTAVYYCWRLGNDYFDYWGQGTLVTVSS
# Experiments:
# Test in all cases: SPR
# Conditions in all cases: remark: other sources report otherwise
# [1] = biological target: SARS-CoV-2 S RBD (N501Y) (SARS-CoV-2), P0DTC2
# [2] = biological target: SARS-CoV-2 S1 (HV69-70del, Y144del, N501Y, A570D, D614G, P681H) (SARS-CoV-2), P0DTC2
# [3] = biological target: SARS-CoV-2 S RBD (K417N) (SARS-CoV-2), P0DTC2
# [4] = biological target: SARS-CoV-2 S RBD (Y453F) (SARS-CoV-2), P0DTC2
# [5] = biological target: SARS-CoV-2 S1 (D614G) (SARS-CoV-2), P0DTC2
binder,measurement,setting,value
B1,Kd,[1],3.8 nM
same,Kd,[2],80 nM
same,Kd,[3],14 nM
same,Kd,[4],5.4 nM
same,Kd,[5],95 nM
